The target of this experiment is insulin degradation enzyme (IDE) (UniProt P14735 42-1019, limits assumed). The experiment in a line: cell-based or functional assay.

The source of these data is patent publication US20120135916A1 (SIEMENS HEALTHCARE DIAGNOSTICS, published 2012).

Bridge positions count the residues as written; N and C are the ends. Ends that are not written are not given here. I, II: the chains in the order shown.

B1: R1 CTF25 R2 CTF25 heterodimer (peptide)
peptide 1: HFYGVSNLQEFRYGLEGGCTDDTLL
peptide 2: HFHGVSNLQEFRFMIGGGCSEEDAL
modifications: disulfide I:19-II:19
As to B1, the “IDE Inhibition (90% inhibition at)” value was determined as 0.6 µg/mL.
In the case of HFHGVSNLQEFRFMIGGGCSEEDAL [R2 CTF25] it was 9 µg/mL; in that of VVAGAFVHFHGVSNLQEFRFMIGGGCSEEDAL [R2 CTF32], 40 µg/mL.

B2: R1 CTF32 R2 CTF32 heterodimer (peptide)
peptide 1: VVAAAFVHFYGVSNLQEFRYGLEGGCTDDTLL
peptide 2: VVAGAFVHFHGVSNLQEFRFMIGGGCSEEDAL
modifications: disulfide I:26-II:26
On to B2, for which the “IDE Inhibition (90% inhibition at)” value stood at 1.2 µg/mL.
Turning to VVAGAFVHFHGVSNLQEFRFMIGGGCSEEDAL (also: homodimer: inter-chain disulfide between Cys26 of both mer units) [R2 CTF32 R2 CTF32 homodimer], the “IDE Inhibition (90% inhibition at)” value was 19 µg/mL.
The result for VVAAAFVHFYGVSNLQEFRYGLEGGCTDDTLL (also: homodimer: inter-chain disulfide between Cys26 of both mer units) [R1 CTF32 R1 CTF32 homodimer] reads 22.5 µg/mL; that for VVAAAFVHFYGVSNLQEFRYGLEGGCTDDTLL [R1 CTF32], 50 µg/mL.
The result for HFYGVSNLQEFRYGLEGGCTDDTLL [R1 CTF25] reads 12.4 µg/mL.
